Measured values: IntAct's records for PubMed 19070620

Molecular target: T1, rogf8_arath ROPGEF8 (UniProt Q9LV40)
T1 sequence: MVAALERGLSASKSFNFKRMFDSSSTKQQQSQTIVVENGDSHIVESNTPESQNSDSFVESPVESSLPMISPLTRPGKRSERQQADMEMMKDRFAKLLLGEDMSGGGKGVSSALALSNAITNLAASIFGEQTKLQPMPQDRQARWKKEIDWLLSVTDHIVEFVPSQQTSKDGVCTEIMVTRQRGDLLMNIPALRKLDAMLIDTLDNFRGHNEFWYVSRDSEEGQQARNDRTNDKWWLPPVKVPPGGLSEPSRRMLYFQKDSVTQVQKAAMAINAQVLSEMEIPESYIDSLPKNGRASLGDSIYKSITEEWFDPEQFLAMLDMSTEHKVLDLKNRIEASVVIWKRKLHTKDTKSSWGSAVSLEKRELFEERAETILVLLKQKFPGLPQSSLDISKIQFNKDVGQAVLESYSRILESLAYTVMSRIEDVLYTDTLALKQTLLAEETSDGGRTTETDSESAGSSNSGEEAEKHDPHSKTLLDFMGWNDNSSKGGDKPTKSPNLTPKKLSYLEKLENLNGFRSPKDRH

**Q.** How did the “effect of a mutation on the interaction” value turn out when “Ras-related C3 botulinum toxin substrate 1 (Homo sapiens) (from UniProt P63000) P73C” was run?
**A.** Its value is “increasing interaction”.
